Data from patent publication US20150023971A1.

How the values were obtained:
[1] = target: T1, …; assay: SPOT length analysis, dot 16, anti-histidine detection
T1 sequence (peptide): RIFRSSDFAKN

[2] = target: T2, RSSDFAKN; assay: SPOT length analysis, dot 40, HRP-S-protein detection
T2 sequence (peptide): RSSDFAKN

[3] = target: T3, DFAKNFVQ; assay: SPOT length analysis, dot 43, HRP-S-protein detection
T3 sequence (peptide): DFAKNFVQ

[4] = target: T4, …; assay: SPOT length analysis, dot 7, anti-histidine detection
T4 sequence (peptide): RIFRSSDFAKNFV

[5] = target: T5, …; assay: SPOT length analysis, dot 30, HRP-S-protein detection
T5 sequence (peptide): IFRSSDFAK

[6] = target: T6, SDFAKNF; assay: SPOT length analysis, dot 51, HRP-S-protein detection
T6 sequence (peptide): SDFAKNF

[7] = target: T7, SSDFAKN; assay: SPOT length analysis, dot 50, HRP-S-protein detection
T7 sequence (peptide): SSDFAKN

[8] = target: T8, …; assay: SPOT length analysis, dot 33, HRP-S-protein detection
T8 sequence (peptide): SSDFAKNFV

[9] = target: T9, FRSSD; assay: SPOT length analysis, dot 69, HRP-S-protein detection
T9 sequence (peptide): FRSSD

[10] = target: T10, IFRSSD; assay: SPOT length analysis, dot 57, HRP-S-protein detection
T10 sequence (peptide): IFRSSD

[11] = target: T11, …; assay: SPOT length analysis, dot 14, HRP-S-protein detection
T11 sequence (peptide): RSSDFAKNFVQT

[12] = target: T12, DFAK; assay: SPOT length analysis, dot 85, anti-histidine detection
T12 sequence (peptide): DFAK

[13] = target: T13, KNFVQ; assay: SPOT length analysis, dot 76, anti-histidine detection
T13 sequence (peptide): KNFVQ

[14] = target: T14, FVQTD; assay: SPOT length analysis, dot 78, anti-histidine detection
T14 sequence (peptide): FVQTD

[15] = target: T15, KNFV; assay: SPOT length analysis, dot 88, anti-histidine detection
T15 sequence (peptide): KNFV

[16] = target: T16, …; assay: SPOT length analysis, dot 4, HRP-S-protein detection
T16 sequence (peptide): RIFRSSDFAKNFVQ

[17] = target: T17, …; assay: SPOT length analysis, dot 28, HRP-S-protein detection
T17 sequence (peptide): DFAKNFVQTD

[18] = target: T18, …; assay: SPOT length analysis, dot 10, anti-histidine detection
T18 sequence (peptide): RSSDFAKNFVQTD

[19] = target: T19, RIFRSSD; assay: SPOT length analysis, dot 46, anti-histidine detection
T19 sequence (peptide): RIFRSSD

[20] = target: T20, …; assay: SPOT length analysis, dot 24, anti-histidine detection
T20 sequence (peptide): FRSSDFAKNF

[21] = target: T21, …; assay: SPOT length analysis, dot 6, anti-histidine detection
T21 sequence (peptide): FRSSDFAKNFVQTD

[22] = target: T22, IFRSS; assay: SPOT length analysis, dot 68, HRP-S-protein detection
T22 sequence (peptide): IFRSS

[23] = target: T7, SSDFAKN; assay: SPOT length analysis, dot 50, anti-histidine detection
[24] = target: T18, …; assay: SPOT length analysis, dot 10, HRP-S-protein detection
[25] = target: T23, FAKN; assay: SPOT length analysis, dot 86, anti-histidine detection
T23 sequence (peptide): FAKN

[26] = target: T23, FAKN; assay: SPOT length analysis, dot 86, HRP-S-protein detection
[27] = target: T10, IFRSSD; assay: SPOT length analysis, dot 57, anti-histidine detection
[28] = target: T24, …; assay: SPOT length analysis, dot 19, anti-histidine detection
T24 sequence (peptide): RSSDFAKNFVQ

[29] = target: T25, SDFA; assay: SPOT length analysis, dot 84, HRP-S-protein detection
T25 sequence (peptide): SDFA

[30] = target: T26, SDFAKNFV; assay: SPOT length analysis, dot 42, anti-histidine detection
T26 sequence (peptide): SDFAKNFV

[31] = target: T27, sortilin peptide RIFRSSDF on SPOT membrane; assay: SPOT length analysis, dot 37, HRP-S-protein detection
T27 sequence (peptide, C-terminus anchored to the cellulose membrane through a beta-alanine linker): RIFRSSDF

[32] = target: T28, KNFVQT; assay: SPOT length analysis, dot 65, HRP-S-protein detection
T28 sequence (peptide): KNFVQT

[33] = target: T29, SSDFA; assay: SPOT length analysis, dot 71, HRP-S-protein detection
T29 sequence (peptide): SSDFA

[34] = target: T30, RIFRS; assay: SPOT length analysis, dot 67, anti-histidine detection
T30 sequence (peptide): RIFRS

[35] = target: T31, NFVQT; assay: SPOT length analysis, dot 77, anti-histidine detection
T31 sequence (peptide): NFVQT

[36] = target: T1, …; assay: SPOT length analysis, dot 16, HRP-S-protein detection
[37] = target: T32, FAKNFVQ; assay: SPOT length analysis, dot 53, anti-histidine detection
T32 sequence (peptide): FAKNFVQ

[38] = target: T33, FAKNFVQT; assay: SPOT length analysis, dot 44, anti-histidine detection
T33 sequence (peptide): FAKNFVQT

[39] = target: T28, KNFVQT; assay: SPOT length analysis, dot 65, anti-histidine detection
[40] = target: T29, SSDFA; assay: SPOT length analysis, dot 71, anti-histidine detection
[41] = target: T34, SSDFAK; assay: SPOT length analysis, dot 60, anti-histidine detection
T34 sequence (peptide): SSDFAK

[42] = target: T2, RSSDFAKN; assay: SPOT length analysis, dot 40, anti-histidine detection
[43] = target: T35, AKNFVQTD; assay: SPOT length analysis, dot 45, anti-histidine detection
T35 sequence (peptide): AKNFVQTD

[44] = target: T36, FAKNF; assay: SPOT length analysis, dot 74, anti-histidine detection
T36 sequence (peptide): FAKNF

[45] = target: T31, NFVQT; assay: SPOT length analysis, dot 77, HRP-S-protein detection
[46] = target: T37, …; assay: SPOT length analysis, dot 31, anti-histidine detection
T37 sequence (peptide): FRSSDFAKN

[47] = target: T38, FRSSDF; assay: SPOT length analysis, dot 58, anti-histidine detection
T38 sequence (peptide): FRSSDF

[48] = target: T32, FAKNFVQ; assay: SPOT length analysis, dot 53, HRP-S-protein detection
[49] = target: T39, RSSDFAK; assay: SPOT length analysis, dot 49, anti-histidine detection
T39 sequence (peptide): RSSDFAK

BLU His [1]: 53000 BLU
BLU Sprotein [2]: 17200 BLU
BLU Sprotein [3]: 14700 BLU
BLU His [4]: 102000 BLU
BLU Sprotein [5]: 25700 BLU
BLU Sprotein [6]: 17200 BLU
BLU Sprotein [7]: 15900 BLU
BLU Sprotein [8]: 19000 BLU
BLU Sprotein [9]: 15000 BLU
BLU Sprotein [10]: 18100 BLU
BLU Sprotein [11]: 24600 BLU
BLU His [12]: 14400 BLU
BLU His [13]: 18200 BLU
BLU His [14]: 22400 BLU
BLU His [15]: 14900 BLU
BLU Sprotein [16]: 172000 BLU
BLU Sprotein [17]: 19000 BLU
BLU His [18]: 19800 BLU
BLU His [19]: 20200 BLU
BLU His [20]: 20100 BLU
BLU His [21]: 18800 BLU
BLU Sprotein [22]: 38500 BLU
BLU His [23]: 16700 BLU
BLU Sprotein [24]: 20700 BLU
BLU His [25]: 15200 BLU
BLU Sprotein [26]: 13700 BLU
BLU His [27]: 17900 BLU
BLU His [28]: 26000 BLU
BLU Sprotein [29]: 13300 BLU
BLU His [30]: 16300 BLU
BLU Sprotein [31]: 114000 BLU
BLU Sprotein [32]: 14300 BLU
BLU Sprotein [33]: 14700 BLU
BLU His [34]: 115000 BLU
BLU His [35]: 17300 BLU
BLU Sprotein [36]: 63600 BLU
BLU His [37]: 69600 BLU
BLU His [38]: 80400 BLU
BLU His [39]: 15400 BLU
BLU His [40]: 15800 BLU
BLU His [41]: 16100 BLU
BLU His [42]: 18700 BLU
BLU His [43]: 16000 BLU
BLU His [44]: 31900 BLU
BLU Sprotein [45]: 15600 BLU
BLU His [46]: 20400 BLU
BLU His [47]: 17500 BLU
BLU Sprotein [48]: 20300 BLU
BLU His [49]: 17300 BLU
B1: recombinant his-S-tagged pro-domain of human BDNF (residues Ala1-Arg110), from pET-30 Xa/LIC, E. coli (protein, not shown: small tags and cut ends)
chain: APMKEANIRGQGGLAYPGVRTHGTLESVNGPKAGSGLTSLADTFEHVIEELLDEDQKVRPNEENNKDADLYTSRVMLSSQVPLEPPLLFLLEEYKNYLDAANMSMRVRR
